Measurements taken from EP4818204A1 (Nanjing Leads Biolabs Co., Ltd., dated 2026).
Read-outs that look alike come from different tables or passages of the source.

What was measured:
human BMP2 protein [1] = target: T1, human BMP2 protein (human, UniProt P12643 283-396); assay: ELISA, coated protein, antibody at 4 µg/mL
T1 construct: Bought

human Activin A protein [2] = target: T2, human Activin A protein (human, UniProt P08476 311-426); assay: ELISA, coated protein, antibody at 4 µg/mL
T2 construct: Bought; Activin A is by nature a dimer of inhibin beta A chains
T2 sequence (looked up): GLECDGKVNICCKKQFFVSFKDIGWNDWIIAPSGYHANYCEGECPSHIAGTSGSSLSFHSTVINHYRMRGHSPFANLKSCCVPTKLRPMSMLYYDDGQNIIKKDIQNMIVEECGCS

human Activin B protein [3] = target: T3, human Activin B protein (human, UniProt P09529 293-407); assay: ELISA, coated protein, antibody at 4 µg/mL
T3 construct: Bought; Activin B is by nature a dimer of inhibin beta B chains
T3 sequence (looked up): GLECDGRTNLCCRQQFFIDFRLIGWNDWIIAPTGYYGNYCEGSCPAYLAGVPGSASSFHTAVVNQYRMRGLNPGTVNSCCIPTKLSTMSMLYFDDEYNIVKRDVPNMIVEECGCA

human GDF1 protein [4] = target: T4, human GDF1 protein (human, UniProt P27539 254-372, limits assumed); assay: ELISA, coated protein, antibody at 4 µg/mL
T4 construct: Bought
T4 sequence (looked up): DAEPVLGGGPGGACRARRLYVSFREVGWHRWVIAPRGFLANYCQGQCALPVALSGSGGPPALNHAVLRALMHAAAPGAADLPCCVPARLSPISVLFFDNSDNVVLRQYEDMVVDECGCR

human GDF2 protein [5] = target: T5, human GDF2 protein (human, UniProt Q9UK05 320-429); assay: ELISA, coated protein, antibody at 4 µg/mL
T5 construct: Bought
T5 sequence (looked up): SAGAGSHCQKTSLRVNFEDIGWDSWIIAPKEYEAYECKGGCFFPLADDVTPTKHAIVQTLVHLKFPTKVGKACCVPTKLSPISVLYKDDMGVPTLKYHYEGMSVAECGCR

human GDF3 protein [6] = target: T6, human GDF3 protein (human, UniProt Q9NR23 251-364, limits assumed); assay: ELISA, coated protein, antibody at 4 µg/mL
T6 construct: Bought
T6 sequence (looked up): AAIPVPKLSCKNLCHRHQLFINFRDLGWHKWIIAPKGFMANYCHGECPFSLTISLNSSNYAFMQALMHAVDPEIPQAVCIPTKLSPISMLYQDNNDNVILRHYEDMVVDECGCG

human BMP4 protein [7] = target: T7, human BMP4 protein (human, UniProt P12644 293-408); assay: ELISA, coated protein, antibody at 4 µg/mL
T7 construct: Bought
T7 sequence (looked up): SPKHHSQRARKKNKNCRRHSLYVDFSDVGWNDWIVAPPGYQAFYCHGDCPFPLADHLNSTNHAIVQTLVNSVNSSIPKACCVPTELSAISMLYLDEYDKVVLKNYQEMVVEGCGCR

human GDF11 protein [8] = target: T8, human GDF11 protein (human, UniProt O95390 299-407); assay: ELISA, coated protein, antibody at 4 µg/mL
T8 construct: Bought
T8 sequence (looked up): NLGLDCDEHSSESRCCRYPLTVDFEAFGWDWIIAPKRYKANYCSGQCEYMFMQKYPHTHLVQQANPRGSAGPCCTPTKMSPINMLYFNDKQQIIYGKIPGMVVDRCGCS

human GDNF protein = target: T9, human GDNF protein (human, UniProt P39905 78-211); assay: ELISA, coated protein, antibody at 4 µg/mL
T9 construct: Bought
T9 sequence (looked up): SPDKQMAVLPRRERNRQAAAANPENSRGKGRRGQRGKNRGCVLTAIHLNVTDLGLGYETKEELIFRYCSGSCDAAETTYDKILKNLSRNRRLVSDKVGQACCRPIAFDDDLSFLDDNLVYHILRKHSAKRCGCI

human TGFβ1 protein [9] = target: T10, human TGFβ1 protein (human, UniProt P01137 279-390); assay: ELISA, coated protein, antibody at 4 µg/mL
T10 construct: Bought

human GFRα1 protein [10] = target: T11, human GFRα1 protein (human, UniProt P56159 25-429, limits assumed); assay: ELISA, coated protein, antibody at 4 µg/mL
T11 construct: Bought
T11 sequence (looked up): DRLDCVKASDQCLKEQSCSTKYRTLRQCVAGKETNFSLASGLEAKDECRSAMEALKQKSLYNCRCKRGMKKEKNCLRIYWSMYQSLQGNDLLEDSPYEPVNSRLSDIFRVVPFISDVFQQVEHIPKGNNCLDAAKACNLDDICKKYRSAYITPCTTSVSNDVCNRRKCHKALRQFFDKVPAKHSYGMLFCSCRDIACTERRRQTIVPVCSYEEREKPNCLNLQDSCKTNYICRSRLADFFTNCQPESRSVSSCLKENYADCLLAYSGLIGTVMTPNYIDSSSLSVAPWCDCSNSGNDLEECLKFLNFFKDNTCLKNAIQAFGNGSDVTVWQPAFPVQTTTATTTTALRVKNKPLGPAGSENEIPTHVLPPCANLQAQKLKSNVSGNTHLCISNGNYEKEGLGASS

human BMP2 protein [11] = target: T1, human BMP2 protein; assay: ELISA, coated protein, antibody at 4 µg/mL; remark: listed apart in the source
human Activin A protein [12] = target: T2, human Activin A protein; assay: ELISA, coated protein, antibody at 4 µg/mL; remark: listed apart in the source
human Activin B protein [13] = target: T3, human Activin B protein; assay: ELISA, coated protein, antibody at 4 µg/mL; remark: listed apart in the source
Human GDF15 protein = target: T12, Human GDF15 protein (human, UniProt Q99988 197-308); assay: ELISA, coated protein, antibody at 4 µg/mL
T12 construct: Natural GDF15 is said to be a disulfide-linked homodimer; also called Human-GDF15-his
T12 sequence: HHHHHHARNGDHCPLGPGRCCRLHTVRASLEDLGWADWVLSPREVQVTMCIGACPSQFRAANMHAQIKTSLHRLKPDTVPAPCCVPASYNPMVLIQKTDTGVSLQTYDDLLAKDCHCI

[14] = target: human AMH protein (human) (UniProt P03971); assay: ELISA, coated protein, antibody at 4 µg/mL
[15] = target: human GDF8 protein (human) (UniProt O14793); assay: ELISA, coated protein, antibody at 4 µg/mL
human GDF1 protein [16] = target: T4, human GDF1 protein; assay: ELISA, coated protein
human GDF2 protein [17] = target: T5, human GDF2 protein; assay: ELISA, coated protein
human GDF3 protein [18] = target: T6, human GDF3 protein; assay: ELISA, coated protein
human BMP4 protein [19] = target: T7, human BMP4 protein; assay: ELISA, coated protein
human GDF11 protein [20] = target: T8, human GDF11 protein; assay: ELISA, coated protein
human TGFβ1 protein [21] = target: T10, human TGFβ1 protein; assay: ELISA, coated protein
human GFRα1 protein [22] = target: T11, human GFRα1 protein; assay: ELISA, coated protein
human BMP2 protein [23] = target: T1, human BMP2 protein; assay: ELISA, coated protein
human Activin A protein [24] = target: T2, human Activin A protein; assay: ELISA, coated protein
human Activin B protein [25] = target: T3, human Activin B protein; assay: ELISA, coated protein
human GDF1 protein [26] = target: T4, human GDF1 protein; assay: ELISA, coated protein, antibody at 4 µg/mL; remark: listed apart in the source
human GDF2 protein [27] = target: T5, human GDF2 protein; assay: ELISA, coated protein, antibody at 4 µg/mL; remark: listed apart in the source
human GDF3 protein [28] = target: T6, human GDF3 protein; assay: ELISA, coated protein, antibody at 4 µg/mL; remark: listed apart in the source
human BMP4 protein [29] = target: T7, human BMP4 protein; assay: ELISA, coated protein, antibody at 4 µg/mL; remark: listed apart in the source
human GDF11 protein [30] = target: T8, human GDF11 protein; assay: ELISA, coated protein, antibody at 4 µg/mL; remark: listed apart in the source
human TGFβ1 protein [31] = target: T10, human TGFβ1 protein; assay: ELISA, coated protein, antibody at 4 µg/mL; remark: listed apart in the source
human GFRα1 protein [32] = target: T11, human GFRα1 protein; assay: ELISA, coated protein, antibody at 4 µg/mL; remark: listed apart in the source
human BMP2 protein [33] = target: T1, human BMP2 protein; assay: ELISA, coated protein, antibody at 4 µg/mL; remark: listed apart in the source
human Activin A protein [34] = target: T2, human Activin A protein; assay: ELISA, coated protein, antibody at 4 µg/mL; remark: listed apart in the source
human Activin B protein [35] = target: T3, human Activin B protein; assay: ELISA, coated protein, antibody at 4 µg/mL; remark: listed apart in the source
human FcRn protein = target: T13, human FcRn protein (human, UniProt P55899 24-297); assay: BLI (Octet RED96e), FcRn on SA sensor, antibody as analyte, binding and dissociation at pH 6.0, 1:1 model
T13 construct: Bought, loaded on a streptavidin (SA) sensor; FcRn is by nature a heterodimer with beta-2-microglobulin
T13 sequence (P55899 24-297 limits assumed, form in doubt): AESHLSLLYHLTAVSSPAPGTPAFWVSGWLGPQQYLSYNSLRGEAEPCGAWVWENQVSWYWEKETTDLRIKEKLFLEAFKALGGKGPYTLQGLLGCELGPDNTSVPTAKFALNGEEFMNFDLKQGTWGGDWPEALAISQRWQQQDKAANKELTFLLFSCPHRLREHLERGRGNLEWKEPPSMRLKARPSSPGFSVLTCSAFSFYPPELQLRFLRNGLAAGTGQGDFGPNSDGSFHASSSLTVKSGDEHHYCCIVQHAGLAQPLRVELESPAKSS

T10 sequence (P01137 279-390 limits assumed): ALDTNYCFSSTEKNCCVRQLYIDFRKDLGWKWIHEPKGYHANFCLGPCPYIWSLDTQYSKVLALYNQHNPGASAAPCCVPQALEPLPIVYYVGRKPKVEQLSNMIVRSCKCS
T1 sequence (P12643 283-396 limits assumed): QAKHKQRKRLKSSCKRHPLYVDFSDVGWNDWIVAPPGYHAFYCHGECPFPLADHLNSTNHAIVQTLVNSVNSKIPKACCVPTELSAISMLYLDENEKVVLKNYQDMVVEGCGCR

Ponsegromab (antibody)
OD value (OD 450 nm-620 nm) (human BMP2 protein [1]): 0.265 | OD value (OD 450 nm-620 nm) (human Activin A protein [2]): 0.0698 | OD value (OD 450 nm-620 nm) (human Activin B protein [3]): 0.187 | OD value (OD 450 nm-620 nm) (human GDF1 protein [4]): 0.0818 | OD value (OD 450 nm-620 nm) (human GDF2 protein [5]): 0.555 | OD value (OD 450 nm-620 nm) (human GDF3 protein [6]): 0.0676 | OD value (OD 450 nm-620 nm) (human BMP4 protein [7]): 0.0639 | OD value (OD 450 nm-620 nm) (human GDF11 protein [8]): 0.0375 | OD value (OD 450 nm-620 nm) (human GDNF protein): 1.21 | OD value (OD 450 nm-620 nm) (human TGFβ1 protein [9]): 0.129 | OD value (OD 450 nm-620 nm) (human GFRα1 protein [10]): 0.124 | OD value (OD 450 nm-620 nm) (human BMP2 protein [11]): 0.227 | OD value (OD 450 nm-620 nm) (human Activin A protein [12]): 0.0863 | OD value (OD 450 nm-620 nm) (human Activin B protein [13]): 0.156 | OD value (OD 450 nm-620 nm) (Human GDF15 protein): 3.33 | OD value (OD 450 nm-620 nm) [14]: 0.0754 | OD value (OD 450 nm-620 nm) [15]: 0.0755

B1: hu19C4C7-YTE (antibody, human IgG1, kappa)
heavy: QVQLVQSGAEVKKPGSSVKVSCKASGYSFTGYIMNWVRQAPGQSLEWMGDIDPYYGGPNYNQKFQGRVTITVDKSTSTAYMELSSLRSEDTAVYYCSRRDYNYGSFAYWGQGTLVTVSSASTKGPSVFPLAPSSKSTSGGTAALGCLVKDYFPEPVTVSWNSGALTSGVHTFPAVLQSSGLYSLSSVVTVPSSSLGTQTYICNVNHKPSNTKVDKKVEPKSCDKTHTCPPCPAPEAAGAPSVFLFPPKPKDTLYITREPEVTCVVVDVSHEDPEVKFNWYVDGVEVHNAKTKPREEQYNSTYRVVSVLTVLHQDWLNGKEYKCKVSNKALPAPIEKTISKAKGQPREPQVYTLPPSREEMTKNQVSLTCLVKGFYPSDIAVEWESNGQPENNYKTTPPVLDSDGSFFLYSKLTVDKSRWQQGNVFSCSVMHEALHNHYTQKSLSLSPGK
light: QIVLTQSPATLSLSPGERATLSCRASSSVNYMHWYQQKPGQAPRPLIYATSNLATGIPARFSGSGSGTDYTLTISSLEPEDFAVYYCQQWSDNPPTFGQGTKLEIKRTVAAPSVFIFPPSDEQLKSGTASVVCLLNNFYPREAKVQWKVDNALQSGNSQESVTEQDSKDSTYSLSSTLTLSKADYEKHKVYACEVTHQGLSSPVTKSFNRGEC
notes: Hu19C4C7 with human IgG1 constant region carrying L234A, L235A, G237A, M252Y, S254T, T256E (EU numbering); also called hu19C4C7-YTE-IgG1-mut
binding result (human GDF1 protein [16]): no binding (tested: 4 µg/mL) | binding result (human GDF2 protein [17]): no binding (tested: 4 µg/mL) | binding result (human GDF3 protein [18]): no binding (tested: 4 µg/mL) | binding result (human BMP4 protein [19]): no binding (tested: 4 µg/mL) | binding result (human GDF11 protein [20]): no binding (tested: 4 µg/mL) | binding result (human TGFβ1 protein [21]): no binding (tested: 4 µg/mL) | binding result (human GFRα1 protein [22]): no binding (tested: 4 µg/mL) | binding result (human BMP2 protein [23]): no binding (tested: 4 µg/mL) | binding result (human Activin A protein [24]): no binding (tested: 4 µg/mL) | binding result (human Activin B protein [25]): no binding (tested: 4 µg/mL) | OD value (OD 450 nm-620 nm) (human GDNF protein): 0.296 | OD value (OD 450 nm-620 nm) (Human GDF15 protein): 2.39 | OD value (OD 450 nm-620 nm) [14]: 0.0409 | OD value (OD 450 nm-620 nm) [15]: 0.0508 | OD value (human GDF1 protein [26]): 0.144 OD 450 nm-620 nm | OD value (human GDF2 protein [27]): 0.0643 OD 450 nm-620 nm | OD value (human GDF3 protein [28]): 0.0907 OD 450 nm-620 nm | OD value (human BMP4 protein [29]): 0.0595 OD 450 nm-620 nm | OD value (human GDF11 protein [30]): 0.0709 OD 450 nm-620 nm | OD value (human TGFβ1 protein [31]): 0.114 OD 450 nm-620 nm | OD value (human GFRα1 protein [32]): 0.132 OD 450 nm-620 nm | OD value (human BMP2 protein [33]): 0.0973 OD 450 nm-620 nm | OD value (human Activin A protein [34]): 0.0582 OD 450 nm-620 nm | OD value (human Activin B protein [35]): 0.114 OD 450 nm-620 nm | Kd (human FcRn protein): 2.89 nM | koff (human FcRn protein): 0.00257 s⁻¹ | kon (human FcRn protein): 889000 M⁻¹ s⁻¹
